Test results reported in the supplement of paper PMC11502859.

Tested on: HEK293T
Assay: median enrichment of reporter reads in eGFP-reduced (low/intermediate) vs eGFP-high sorted cells (eGFP-extension fusion abundance) (ratio); higher = stronger loss of eGFP-fusion protein abundance (more destabilising extension)
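Further: lentiviral eGFP-IRES-mCherry reporter pool sorted by FACS 96 h post-transduction, gated on mCherry-high cells, Illumina read counts normalized per million, median across four biological replicates.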

Chain of CASP8 (chain, as listed by the source): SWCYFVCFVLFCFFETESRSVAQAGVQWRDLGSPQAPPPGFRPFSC

Row | Substance | median enrichment
1 | CDAQTASSATKRPENSRFTTFLSHVEAFPFNRGPSSEPRPISAIFFS [LMBR1] | 12
2 | YNLIASTLKDKTSNSHLL [KIF9] | 1.28
3 | SVFGKQQRASPLPGGLPCRFWASFPCLSLFRCAFHL [MAP2K1] | 12.4
4 | QACPAVNLHLEP [SEC16A] | 0.624
5 | WGWKGPEG [SLC35B2] | 1.98
6 | YVI [UPRT] | 1.22
7 | QDPVVLFESLRP [HAVCR1] | 0.393
8 | QFDNKAEGLSSNMVAFF [ACSM4] | 0.317
9 | CRKVSKNVNIL [C2orf49] | 0.739
10 | LLECEISVGQTTRVCVCVLMESSLVVSSSFFLVTVLLNLIK [PET117] | 9.64
11 | LVLRLRATPLPSACSFPGIFVSF [EPS15L1] | 18
12 | LLLPRSWATP [CEP72] | 4.2
13 | WPPPASLSPHP [TTC24] | 0.329
14 | SCRDSPAPKYK [MT1G] | 0.15
15 | CRL [ACADSB] | 4.42
16 | QCL [ADGRG6] | 0.557
17 | LADI [MED30] | 0.335
18 | WSTPAWYRHTQGLPCLHSPA [PDZD3] | 5.04
19 | LLLLLLLL [Leu08] | 6.62
20 | LNREKKLQVVLKEMQLFKSLCIVLILFTMCNHLENGYFYNLNNKQVLS [C8orf34] | 2.33
21 | YKTPCSAILISYR [APOO] | 4.54
22 | YSTVI [C5orf15] | 0.763
23 | SAGSSPLVHSSQGQKGVDMINTESPTSTPTEFPARQCQKHFSREPKPNQEEAREEAGREEGAFPAPRFLKCRSDTCVGVHVLY [SWI5] | 1.02
24 | YNYLSPL [FAM104B] | 2.29
25 | RAWLPACTPPLPPHESPPAGYRGRHAPGASPALGTTCLPAPPGPGPPAAPHFRRGLEQGEAGLWGAVREIYWGPQILL [ECEL1] | 4.03

Row | Substance | median enrichment
26 | RVFGNRISCVAHRPVEKLEPKLSYLEMTFGLDSW [C12orf76] | 4.28
27 | YGFSPFGDHLSVSPTHYPICPPPQLGPRGPTLHFWGVTDFVHGFKVYFYGLVIAEFLFWGEGKGASPLLLALRPRRLLCAANC [TSPYL2] | 5.92
28 | WDRAGDEARPWTLHPAIETGLRRKEDPGQDPGRLATPPTPRTYSR [NUPR1] | 5.32
29 | CRALMSPTRKLTPNKRLPFPLGFFVLFLSKRDR [IPO5] | 4.2
30 | LSLTALPGANSGT [ANKZF1] | 1.24
31 | EEITRWHQPRALARYGEGTWGPHLPPGLFREDPTVTPPSAVGAWRWAAGLNPPWGAPFLLPICVYIHK [MEF2B] | 6.73
32 | WLEWIYDVPLRRSISATILI [HMGCLL1] | 12.2
33 | SSSSLFLGNSLLFLPHGRCK [MAX] | 4.93
34 | RGSGQECHSQCPDPEIGPIPCLQPCLEAIQ [SLC22A14] | 2.88
35 | LKVSVNLQC [ZFR] | 6.3
36 | MMMMMMMMMM [Met10] | 10.8
37 | KSTSSHETE [UNC5D] | 1.07
38 | YMQRPRRAALTTRFIF [EWSR1] | 6.81
39 | WWHELLASLDGQSKKKLVYFVQICHKLKAVTGEKD [PIWIL4] | 22.9
40 | GGAVAANTPASGLLVAAPGDTPAKPTRWRGPPWSLATLPASAQGPLPSPGHLLCRRHSSQKPLSQKRLVFKKSRFFAPEVSFR [AP1M1] | 5.45
41 | QLYHYSRSSSQHHLLATWDV [GCG] | 16.8
42 | WYSFHYSI [BTN3A3] | 6.28
43 | YFVLRTDFLPIPFLNIQRLYWPVSFYFFPPDKYFRS [STMN1] | 15.2
44 | GAHPKYACHLRPQAGHTGQPACRQDLPASSSQYSLQRLKCEAPAPPSALQPTGPGRTCPLSVSPSRVPRWRPLSTG [PAK6] | 3.28
45 | CASP8 | 22.5
46 | KLSNH [WDR27] | 0.453
47 | WQAGS [IFITM5] | 0.552
48 | RCVHSISEETTHRSFFSLF [GIPC2] | 8.59
49 | WDFGSF [TSPAN31] | 0.573
50 | SGTWCATGCKLQGIFIGCSCIVLHSSAIYF [PSEN2] | 7.44

Row | Substance | median enrichment
51 | YVAMVKVSVAAAAMASRRRCWDCFALEPASGCPLQWLCYCMDCILDFMCMSQ [DYNLL2] | 10.8
52 | YAKSRCTQHVLGMQPQEVPDLKQPDSYLA [GREM1] | 22.9
53 | WWWWWW [Trp06] | 3.74
54 | YQAQLQKDLTCAHKILL [LCN6] | 7.65
55 | GGGTGLTF [CARS] | 0.299
56 | QRCEGIGETLGWLVMVSIAGHQKLDS [B4GALNT2] | 4.77
57 | QPKTRGSDLC [EPC2] | 0.415
58 | RDSSP [CD1C] | 0.413
59 | GNHGARAARCVQRRAHRHHPHPDQPAYRGARAPLPEAAQGHQR [UCKL1] | 0.821
60 | VAANTPASGLLVAAPGDTPAKPTRWRGPPWSLATLPASAQGPLPSPGHLLCRRHSSQKPLSQKRLVFKKSRFFAPEVSFRGRM [AP1M1] | 4.38
61 | LLC [OR10A3] | 3.73
62 | WQHFCILKKCNLFLITALKL [UBQLN1] | 12.2
63 | SQDLVGGTGNWGWEGGNKDIWPS [RNF25] | 1.76
64 | YVNV [CLEC2B] | 0.896
65 | YGLAKAPIEALCQ [PITHD1] | 1.66
66 | RNRGLNVFRVRMP [PARD6B] | 4.57
67 | YILKTQPSSKRHAPPHSPGPGRGGCSS [ADORA1] | 2.57
68 | YEHLVKTRPSGPTMSAPSRGRDMACHSS [ITGB2] | 0.9
69 | CEA [NPSR1] | 10.3
70 | RCFRRLFFSSRSCHLIILH [COMMD10] | 7.76
71 | WPV [HNRNPUL1] | 0.672
72 | CRRQKISFVQKSKMKRM [INSIG2] | 3.96
73 | LLMMFQKPK [TGIF2LX] | 8.04
74 | LHVKTFILVSTVFQ [SCGB1D2] | 6.88
75 | QWLSGSMC [LYPD6] | 0.958

Row | Substance | median enrichment
76 | QTTFPKENIRGFHC [CPVL] | 0.323
77 | SFFFPSAS [KAT2B] | 2.2
78 | PVGKGGGLRGRGWMPRAPKPPFPFVSKGVRSELRKRASECVSLEGLGALWCYHLETCLMPPCLPMEDRLQELGPCGNLACFGG [MTA2] | 6.97
79 | APSCLSRCDRARPKPGCTLLDWASLHCLGKSAEGPKLLRGLRLVPTPKLVCSLPLPARVSGPRSIENTTTMARWKGLLVPASS [MLST8] | 5.58
80 | QPGT [ZNF445] | 1.04
81 | SAGPWDTAFSFARLSACRPGGEPGPANESLVYLGCNSLKVQSFGLQSCPGPGSPGHCCSPRPWALVFLQHHTCCPFSISVCVK [MYO1F] | 7.3
82 | YAQLAICKVTSAKFSFGSYPRAPMSSYQEVINVTPFHRLKGVITLLLG [PAFAH2] | 4.37
83 | SEAPAANTMQARCVSELF [METTL2B] | 0.81
84 | YQVIAEQMNRPPASVANTRSISLGQWTNT [LCP2] | 2.43
85 | QSIQQSLIRHAKI [SDHAF3] | 4.37
86 | LFE [OR12D2] | 0.755
87 | SEEQPSFVPVVFIKYPLHP [WDR54] | 6.65
88 | RPWPRAQACLGWALPLTTQGGPGPLGFLPWGQQPPAGLVGSGFLDFLMKRGYL [KCNH4] | 4.41
89 | QFKELKIHMHEP [WDR41] | 1.3
90 | GGEERRADLGRALRTWPRARDSPGSSSPWQAQQHVPQIWKGLPLCQCLGGCHGCPHPLLSVCGVEEPTPASCQDHLGGHTPAK [GPRC5C] | 0.687
91 | WARTSPGTAGGPPPPPSHSVTPGPSGAGWRPRSPLLRSPRS [NPB] | 3.31
92 | SGAENGSCRKIRLRRLPAFCHPSHSQTPDHLKLLTLWFQIFFNLLLLLSLSNLGTFKNREMSECG [STAT3] | 6.44
93 | GRNQQSTSAGQQPREPLPTRIAGSVTEQAG [ETV6] | 4.01
94 | YAVQSSFSGA [NLRP8] | 5.86
95 | QQFSHFLHLSDRTHHLCLP [ZDHHC15] | 20.5
96 | ELQQKNLHCYIRYRYKMQKKHQEFCLLFYFIFKLQEVFSSWDNLVLLLSIICQFLCILNKINIELK [WDR49] | 2.64
97 | GVFDS [DDX50] | 0.357
98 | LWAHHKDTSSLCRHHPAIESGGPCWSLWTYSSRPEKSLALELNSLDCTITTTYELRDYEGLFRGYESEPLFLEL [TMEM177] | 9.96
99 | NNNN [Asn04] | 0.299
100 | WARRASQRSGQAVRPWPSVC [INMT] | 9.99

Row | Substance | median enrichment
101 | YPWALPCYPFSPLEVPNLLHPLPLL [PPRC1] | 3.39
102 | GSPLCLGLLLPREFSPLTYPHLSGLTGRNHCTTERGWDGPASCLWEKTSCLGRGLCLVKVPTGNP [ITGAX] | 5.38
103 | WGMFVPGKAGGEPLQHLYIQEACREELVCWPQEEWELQTRSSDSLWPESNLVSPPASLF [FGF1] | 7.24
104 | RTRIPNYISTDAFHFNSS [SAMSN1] | 2.43
105 | SPHPAPPPPRPTRRPPDSSPGASSATPSLHPWGPSPPACTEQGLGVSWEA [ITGB4] | 0.621
106 | EMALSPPRSWGQ [Degron APPBP2] | 10.9
107 | SNIRFVIRNTLCLLWSCARWPQMDYRRLQRTRQMEH [BCL2L14] | 16.6
108 | WGPPRARRTGTELSRGRSPRQAQLV [CDS2] | 11.7
109 | SDDILSPCVAFYLRFPRPAMFSSSPFSLYKNSFSRKTLISIVYMSLWLRH [ACTR3C] | 17.1
110 | YILPEDKEKSKYCIGT [IRAK3] | 9.91
111 | STSPAPLRTPPRLDGWAHASHWGPGSRRWAPTLGPRGAANHTGLRPSYPAPSPSTSTFTSPPFHFFLYVFFLLETDSIHIEYN [JUNB] | 4.9
112 | YLDQSKCGLNLLVDQC [SLC25A3] | 13.3
113 | YVRTVG [UFD1] | 3.02
114 | WFIFKGLCVTLTFPVVTCDCFVFVEEYCFYFEKRVFFLSMGLQGWCTTGPSMYSCIDFFT [CD109] | 0.738
115 | LASDLPNDLLLAQLDARQARLSLC [BNC2] | 4.33
116 | YVFVIFNCSML [CRISP1] | 8.9
117 | GSRGRGGESPPRPPLPSPPGSRGSGLGRLPIPLLQAALIPHRN [FBXO46] | 5.21
118 | YGREARAAPAFLLQIWAAVARAVSPVAEPSGRCGNRRSSVAPVS [CPTP] | 7
119 | YTCPYSSRALNLLLTNHLLRC [KCNU1] | 11.9
120 | KKVGRARPCQRG [Degron KLHDC3] | 6.66
121 | KIWLFMHCGMCSSFSVFRYKVLYQSVIYKVYQHKCW [MLH1] | 5.38
122 | SPYRKAGRL [BCKDHB] | 19.5
